Source: PMC9482650, “Quantitative fragmentomics allow affinity mapping of interactomes” (Nature Communications, 2022)

Tests used:
Assay in all cases: holdup assay
Parameters in all cases: key: below the threshold = too weak to quantify, mostly under pKd 3.1 to 4
Inadl_8, Q8NI35 = molecular target: Inadl_8, Q8NI35
DLG1_3, Q12959 = molecular target: DLG1_3, Q12959
FRMPD3, Q5JV73 = molecular target: FRMPD3, Q5JV73
NHERF3_3, Q5T2W1 = molecular target: T1, NHERF3_3, Q5T2W1
T1 sequence (Q5T2W1 238-333, limits assumed, looked up): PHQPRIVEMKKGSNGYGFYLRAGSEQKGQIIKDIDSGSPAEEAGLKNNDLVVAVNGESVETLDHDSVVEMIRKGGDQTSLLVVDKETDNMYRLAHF

NHERF3_1, Q5T2W1 = molecular target: T2, NHERF3_1, Q5T2W1
T2 sequence (Q5T2W1 4-100, limits assumed, looked up): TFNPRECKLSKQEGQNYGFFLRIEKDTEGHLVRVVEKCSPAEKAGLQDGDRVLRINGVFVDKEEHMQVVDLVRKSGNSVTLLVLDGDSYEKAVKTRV

LRRC7, Q96NW7 = molecular target: T3, LRRC7, Q96NW7
T3 sequence (Q96NW7 1440-1537, limits assumed, looked up): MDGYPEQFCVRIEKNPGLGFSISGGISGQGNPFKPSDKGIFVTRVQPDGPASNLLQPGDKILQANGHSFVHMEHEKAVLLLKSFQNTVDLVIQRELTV

GRIP2_6, Q9C0E4 = molecular target: GRIP2_6, Q9C0E4
Sequence of GRIP2_6, Q9C0E4 (Q9C0E4 648-740): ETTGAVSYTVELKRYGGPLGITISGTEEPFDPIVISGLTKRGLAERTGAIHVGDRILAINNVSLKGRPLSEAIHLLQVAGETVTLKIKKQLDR

NHERF4_2, Q86UT5 = molecular target: NHERF4_2, Q86UT5
Sequence of NHERF4_2, Q86UT5 (Q86UT5 220-308): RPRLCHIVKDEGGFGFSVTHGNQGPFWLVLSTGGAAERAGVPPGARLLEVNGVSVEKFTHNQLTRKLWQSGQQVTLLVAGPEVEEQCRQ

DLG4_1, P78352 = molecular target: DLG4_1, P78352
Sequence of DLG4_1, P78352 (P78352 62-152): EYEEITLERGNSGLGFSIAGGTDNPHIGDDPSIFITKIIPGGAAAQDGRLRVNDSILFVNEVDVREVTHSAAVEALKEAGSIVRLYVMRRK

TJP3_3, O95049 = molecular target: T4, TJP3_3, O95049
T4 sequence (O95049 375-456, limits assumed, looked up): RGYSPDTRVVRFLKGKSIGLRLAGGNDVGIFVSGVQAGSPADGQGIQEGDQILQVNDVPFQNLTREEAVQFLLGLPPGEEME

SHANK1, Q9Y566 = molecular target: T5, SHANK1, Q9Y566
T5 sequence (Q9Y566 658-767, limits assumed, looked up): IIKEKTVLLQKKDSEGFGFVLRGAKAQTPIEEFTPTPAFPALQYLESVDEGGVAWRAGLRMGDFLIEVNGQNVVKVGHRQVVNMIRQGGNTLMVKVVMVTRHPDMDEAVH

LNX1_1, Q8TBB1 = molecular target: LNX1_1, Q8TBB1
Sequence of LNX1_1, Q8TBB1 (Q8TBB1 261-371): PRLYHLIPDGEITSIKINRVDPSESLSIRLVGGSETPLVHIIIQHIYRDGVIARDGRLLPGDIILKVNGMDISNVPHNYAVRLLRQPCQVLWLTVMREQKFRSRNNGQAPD

CASK, O14936 = molecular target: CASK, O14936
Sequence of CASK, O14936 (O14936 487-570): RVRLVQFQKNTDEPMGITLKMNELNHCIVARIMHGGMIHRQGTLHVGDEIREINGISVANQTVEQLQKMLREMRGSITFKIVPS

APBA3_1, O96018 = molecular target: T6, APBA3_1, O96018
T6 sequence (O96018 389-490, limits assumed, looked up): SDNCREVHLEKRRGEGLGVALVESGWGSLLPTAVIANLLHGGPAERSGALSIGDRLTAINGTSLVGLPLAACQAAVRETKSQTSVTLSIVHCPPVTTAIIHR

Inadl_4, Q8NI35 = molecular target: Inadl_4, Q8NI35
Sequence of Inadl_4, Q8NI35 (Q8NI35 547-651): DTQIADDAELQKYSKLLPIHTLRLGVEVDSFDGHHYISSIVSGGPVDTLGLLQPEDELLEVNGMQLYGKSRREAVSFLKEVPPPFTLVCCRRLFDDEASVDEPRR

PDZD7_3, Q9H5P4 = molecular target: T7, PDZD7_3, Q9H5P4
T7 sequence (Q9H5P4 857-944, limits assumed, looked up): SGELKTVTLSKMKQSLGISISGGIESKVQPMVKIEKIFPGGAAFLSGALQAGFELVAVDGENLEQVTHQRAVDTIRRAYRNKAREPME

RHPN1, Q8TCX5 = molecular target: T8, RHPN1, Q8TCX5
T8 sequence (Q8TCX5 508-602, limits assumed, looked up): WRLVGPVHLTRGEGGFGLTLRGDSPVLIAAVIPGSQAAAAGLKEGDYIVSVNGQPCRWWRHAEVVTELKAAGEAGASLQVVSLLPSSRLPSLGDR

LAP2, Q96RT1 = molecular target: LAP2, Q96RT1
Sequence of LAP2, Q96RT1 (Q96RT1 other isoform, or with tags, fused parts or gaps): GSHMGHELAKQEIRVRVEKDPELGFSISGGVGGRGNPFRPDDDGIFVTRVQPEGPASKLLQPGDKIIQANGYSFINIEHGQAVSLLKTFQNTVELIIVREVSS

APBA1_2, Q02410 = molecular target: T9, APBA1_2, Q02410
T9 sequence (Q02410 742-832, limits assumed, looked up): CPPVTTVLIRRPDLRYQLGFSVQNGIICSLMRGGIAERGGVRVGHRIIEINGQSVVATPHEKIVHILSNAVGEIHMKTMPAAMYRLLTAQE

LIMK2, P53671 = molecular target: LIMK2, P53671
Sequence of LIMK2, P53671 (P53671 143-248): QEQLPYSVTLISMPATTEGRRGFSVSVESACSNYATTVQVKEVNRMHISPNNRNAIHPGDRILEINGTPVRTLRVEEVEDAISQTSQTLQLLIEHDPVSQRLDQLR

DLG3_3, Q92796 = molecular target: T10, DLG3_3, Q92796
T10 sequence (Q92796 374-475, limits assumed, looked up): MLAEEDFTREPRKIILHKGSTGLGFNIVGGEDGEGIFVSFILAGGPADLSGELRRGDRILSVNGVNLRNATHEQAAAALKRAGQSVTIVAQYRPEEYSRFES

GRIP2_3, Q9C0E4 = molecular target: GRIP2_3, Q9C0E4
Sequence of GRIP2_3, Q9C0E4 (Q9C0E4 238-339): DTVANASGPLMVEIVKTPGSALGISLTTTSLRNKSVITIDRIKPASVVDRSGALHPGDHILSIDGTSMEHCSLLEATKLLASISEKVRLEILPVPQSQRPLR

GOPC, Q9HD26 = molecular target: GOPC, Q9HD26
LNX2_3, Q8N448 = molecular target: T11, LNX2_3, Q8N448
T11 sequence (Q8N448 463-564, limits assumed, looked up): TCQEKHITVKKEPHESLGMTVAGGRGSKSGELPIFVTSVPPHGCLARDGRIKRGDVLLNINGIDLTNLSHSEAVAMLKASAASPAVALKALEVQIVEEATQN

FRMPD2_3, Q68DX3 = molecular target: FRMPD2_3, Q68DX3
Sequence of FRMPD2_3, Q68DX3 (Q68DX3 1073-1166): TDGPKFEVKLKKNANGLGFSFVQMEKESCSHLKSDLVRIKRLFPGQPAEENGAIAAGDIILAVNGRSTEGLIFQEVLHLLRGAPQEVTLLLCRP

NHERF2_2, Q15599 = molecular target: NHERF2_2, Q15599
Sequence of NHERF2_2, Q15599 (Q15599 142-238): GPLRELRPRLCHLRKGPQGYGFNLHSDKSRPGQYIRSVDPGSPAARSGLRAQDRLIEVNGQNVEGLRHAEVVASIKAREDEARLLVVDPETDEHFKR

TJP2_1, Q9UDY2 = molecular target: TJP2_1, Q9UDY2
Sequence of TJP2_1, Q9UDY2 (Q9UDY2 24-128): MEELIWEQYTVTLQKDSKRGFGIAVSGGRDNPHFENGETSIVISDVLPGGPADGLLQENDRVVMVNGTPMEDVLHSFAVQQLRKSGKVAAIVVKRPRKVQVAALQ

[1] = plain residues with an end cap or a label only (N-terminal biotin on a linker: ttds)
[2] = plain residues with an end cap or a label only (N-terminal biotin on a linker: ahx)

Sequence of DLG1_3, Q12959 (Q12959 457-571): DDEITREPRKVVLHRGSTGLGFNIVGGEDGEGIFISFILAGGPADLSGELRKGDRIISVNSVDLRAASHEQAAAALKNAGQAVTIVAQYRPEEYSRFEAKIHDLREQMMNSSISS
Sequence of FRMPD3, Q5JV73 (Q5JV73 12-100): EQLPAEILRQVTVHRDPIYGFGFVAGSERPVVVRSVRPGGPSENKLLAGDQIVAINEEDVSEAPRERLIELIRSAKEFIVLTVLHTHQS
Sequence of Inadl_8, Q8NI35 (Q8NI35 1425-1530): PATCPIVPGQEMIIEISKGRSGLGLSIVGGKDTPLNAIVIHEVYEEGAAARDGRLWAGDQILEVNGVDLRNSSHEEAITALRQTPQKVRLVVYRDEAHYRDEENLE

B1: PPP1R13L, Q8WUF5 (peptide)
chain: PRVKPQRSKV
pKd (Inadl_8, Q8NI35; [1]): 4.35
pKd (DLG1_3, Q12959; [1]): below the threshold
pKd (FRMPD3, Q5JV73; [1]): below the threshold
pKd (NHERF3_3, Q5T2W1; [1]): below the threshold
pKd (NHERF3_1, Q5T2W1; [1]): below the threshold
pKd (LRRC7, Q96NW7; [1]): below the threshold
pKd (GRIP2_6, Q9C0E4; [1]): below the threshold
pKd (NHERF4_2, Q86UT5; [1]): below the threshold
pKd (DLG4_1, P78352; [1]): 3.54
pKd (TJP3_3, O95049; [1]): below the threshold
pKd (SHANK1, Q9Y566; [1]): 3.64
pKd (LNX1_1, Q8TBB1; [1]): below the threshold
pKd (CASK, O14936; [1]): below the threshold
pKd (APBA3_1, O96018; [1]): below the threshold
pKd (Inadl_4, Q8NI35; [1]): below the threshold
pKd (PDZD7_3, Q9H5P4; [1]): 3.67
pKd (RHPN1, Q8TCX5; [1]): below the threshold
pKd (LAP2, Q96RT1; [1]): below the threshold
pKd (APBA1_2, Q02410; [1]): 3.54
pKd (LIMK2, P53671; [1]): below the threshold
pKd (DLG3_3, Q92796; [1]): below the threshold
pKd (GRIP2_3, Q9C0E4; [1]): below the threshold
pKd (GOPC, Q9HD26; [1]): 3.95
pKd (LNX2_3, Q8N448; [1]): below the threshold
pKd (FRMPD2_3, Q68DX3; [1]): below the threshold
pKd (NHERF2_2, Q15599; [1]): below the threshold
pKd (TJP2_1, Q9UDY2; [1]): below the threshold

B2: KCTD3, Q9Y597 (peptide)
chain: SDSSGQEYSL
pKd (Inadl_8, Q8NI35; [2]): below the threshold
pKd (DLG1_3, Q12959; [2]): below the threshold
pKd (FRMPD3, Q5JV73; [2]): 3.7
pKd (NHERF3_3, Q5T2W1; [2]): below the threshold
pKd (NHERF3_1, Q5T2W1; [2]): 3.8
pKd (LRRC7, Q96NW7; [2]): below the threshold
pKd (GRIP2_6, Q9C0E4; [2]): 3.6
pKd (NHERF4_2, Q86UT5; [2]): below the threshold
pKd (DLG4_1, P78352; [2]): below the threshold
pKd (TJP3_3, O95049; [2]): below the threshold
pKd (SHANK1, Q9Y566; [2]): below the threshold
pKd (LNX1_1, Q8TBB1; [2]): below the threshold
pKd (CASK, O14936; [2]): below the threshold
pKd (APBA3_1, O96018; [2]): below the threshold
pKd (Inadl_4, Q8NI35; [2]): below the threshold
pKd (PDZD7_3, Q9H5P4; [2]): below the threshold
pKd (RHPN1, Q8TCX5; [2]): below the threshold
pKd (LAP2, Q96RT1; [2]): below the threshold
pKd (APBA1_2, Q02410; [2]): 3.65
pKd (LIMK2, P53671; [2]): below the threshold
pKd (DLG3_3, Q92796; [2]): below the threshold
pKd (GRIP2_3, Q9C0E4; [2]): below the threshold
pKd (GOPC, Q9HD26; [2]): below the threshold
pKd (LNX2_3, Q8N448; [2]): below the threshold
pKd (FRMPD2_3, Q68DX3; [2]): below the threshold
pKd (NHERF2_2, Q15599; [2]): below the threshold
pKd (TJP2_1, Q9UDY2; [2]): below the threshold

B3: SHROOM4, Q9ULL8 (peptide)
chain: ESLLLGPSNF
pKd (Inadl_8, Q8NI35; [2]): 3.57
pKd (DLG1_3, Q12959; [2]): below the threshold
pKd (FRMPD3, Q5JV73; [2]): below the threshold
pKd (NHERF3_3, Q5T2W1; [2]): below the threshold
pKd (NHERF3_1, Q5T2W1; [2]): below the threshold
pKd (LRRC7, Q96NW7; [2]): below the threshold
pKd (GRIP2_6, Q9C0E4; [2]): below the threshold
pKd (NHERF4_2, Q86UT5; [2]): below the threshold
pKd (DLG4_1, P78352; [2]): below the threshold
pKd (TJP3_3, O95049; [2]): below the threshold
pKd (SHANK1, Q9Y566; [2]): 3.53
pKd (LNX1_1, Q8TBB1; [2]): below the threshold
pKd (CASK, O14936; [2]): below the threshold
pKd (APBA3_1, O96018; [2]): below the threshold
pKd (Inadl_4, Q8NI35; [2]): below the threshold
pKd (PDZD7_3, Q9H5P4; [2]): below the threshold
pKd (RHPN1, Q8TCX5; [2]): below the threshold
pKd (LAP2, Q96RT1; [2]): below the threshold
pKd (APBA1_2, Q02410; [2]): below the threshold
pKd (LIMK2, P53671; [2]): below the threshold
pKd (DLG3_3, Q92796; [2]): below the threshold
pKd (GRIP2_3, Q9C0E4; [2]): below the threshold
pKd (GOPC, Q9HD26; [2]): below the threshold
pKd (LNX2_3, Q8N448; [2]): below the threshold
pKd (FRMPD2_3, Q68DX3; [2]): below the threshold
pKd (NHERF2_2, Q15599; [2]): below the threshold
pKd (TJP2_1, Q9UDY2; [2]): below the threshold

B4: HPV59-E6, Q81964 (peptide)
chain: QRQARSETLV
pKd (Inadl_8, Q8NI35; [1]): below the threshold
pKd (DLG1_3, Q12959; [1]): 3.82
pKd (FRMPD3, Q5JV73; [1]): below the threshold
pKd (NHERF3_3, Q5T2W1; [1]): below the threshold
pKd (NHERF3_1, Q5T2W1; [1]): 4.82
pKd (LRRC7, Q96NW7; [1]): below the threshold
pKd (GRIP2_6, Q9C0E4; [1]): below the threshold
pKd (NHERF4_2, Q86UT5; [1]): below the threshold
pKd (DLG4_1, P78352; [1]): 5.11
pKd (TJP3_3, O95049; [1]): 3.7
pKd (SHANK1, Q9Y566; [1]): below the threshold
pKd (LNX1_1, Q8TBB1; [1]): below the threshold
pKd (CASK, O14936; [1]): below the threshold
pKd (APBA3_1, O96018; [1]): below the threshold
pKd (Inadl_4, Q8NI35; [1]): below the threshold
pKd (PDZD7_3, Q9H5P4; [1]): 4.72
pKd (RHPN1, Q8TCX5; [1]): 3.94
pKd (LAP2, Q96RT1; [1]): below the threshold
pKd (APBA1_2, Q02410; [1]): below the threshold
pKd (LIMK2, P53671; [1]): below the threshold
pKd (DLG3_3, Q92796; [1]): 4.51
pKd (GRIP2_3, Q9C0E4; [1]): below the threshold
pKd (GOPC, Q9HD26; [1]): 3.92
pKd (LNX2_3, Q8N448; [1]): below the threshold
pKd (FRMPD2_3, Q68DX3; [1]): below the threshold
pKd (NHERF2_2, Q15599; [1]): below the threshold
pKd (TJP2_1, Q9UDY2; [1]): 3.81

B5: HPV35-E6, P27228 (peptide)
chain: SKPTRRETEV
pKd (Inadl_8, Q8NI35; [1]): below the threshold
pKd (DLG1_3, Q12959; [1]): 4.77
pKd (FRMPD3, Q5JV73; [1]): below the threshold
pKd (NHERF3_3, Q5T2W1; [1]): below the threshold
pKd (NHERF3_1, Q5T2W1; [1]): 4.04
pKd (LRRC7, Q96NW7; [1]): 3.59
pKd (GRIP2_6, Q9C0E4; [1]): below the threshold
pKd (NHERF4_2, Q86UT5; [1]): below the threshold
pKd (DLG4_1, P78352; [1]): 5.09
pKd (TJP3_3, O95049; [1]): below the threshold
pKd (SHANK1, Q9Y566; [1]): below the threshold
pKd (LNX1_1, Q8TBB1; [1]): below the threshold
pKd (CASK, O14936; [1]): below the threshold
pKd (APBA3_1, O96018; [1]): below the threshold
pKd (Inadl_4, Q8NI35; [1]): below the threshold
pKd (PDZD7_3, Q9H5P4; [1]): 4.3
pKd (RHPN1, Q8TCX5; [1]): below the threshold
pKd (LAP2, Q96RT1; [1]): 3.69
pKd (APBA1_2, Q02410; [1]): below the threshold
pKd (LIMK2, P53671; [1]): below the threshold
pKd (DLG3_3, Q92796; [1]): 5.18
pKd (GRIP2_3, Q9C0E4; [1]): below the threshold
pKd (GOPC, Q9HD26; [1]): below the threshold
pKd (LNX2_3, Q8N448; [1]): below the threshold
pKd (FRMPD2_3, Q68DX3; [1]): below the threshold
pKd (NHERF2_2, Q15599; [1]): below the threshold
pKd (TJP2_1, Q9UDY2; [1]): below the threshold
